Laboratory results taken from patent US20110318377.

T1: Tat ARM peptide (amino acids 45-58) K50, 51AA
T1 chain: ISYGRAARRQRRRP

T2: Tat ARM peptide (amino acids 45-58) K50A
T2 chain: ISYGRAKRRQRRRP

T3: Tat ARM peptide (amino acids 45-58) K51A
T3 chain: ISYGRKARRQRRRP

T4: Tat ARM peptide carrying an acetyl group at position 50
T4 chain: ISYGRKKRRQRRRP

T5: unmodified Tat ARM peptide (amino acids 45-58)
T5 chain: ISYGRKKRRQRRRP

T6: Tat ARM peptide (amino acids 45-58) monomethylated at K51
T6 chain: ISYGRKKRRQRRRP

B1: recombinant Set9 (Upstate) (protein)
chain: MDSDDEMVEEAVEGHLDDDGLPHGFCTVTYSSTDRFEGNFVHGEKNGRGKFFFFDGSTLEGYYVDDALQGQGVYTYEDGGVLQGTYVDGELNGPAQEYDTDGRLIFKGQYKDNIRHGVCWIYYPDGGSLVGEVNEDGEMTGEKIAYVYPDERTALYGKFIDGEMIEGKLATLMSTEEGRPHFELMPGNSVYHFDKSTSSCISTNALLPDPYESERVYVAESLISSAGEGLFSKVAVGPNTVMSFYNGVRITHQEVDSRDWALNGNTLSLDEETVIDVPEPYNHVSKYCASLGHKANHSFTPNCIYDMFVHPRFGPIKCIRTLRAVEADEELTVAYGYDHSPPGKSGPEAPEWYQVELKAFQATQQK
B2: recombinant GST-p300 HAT (protein)
chain: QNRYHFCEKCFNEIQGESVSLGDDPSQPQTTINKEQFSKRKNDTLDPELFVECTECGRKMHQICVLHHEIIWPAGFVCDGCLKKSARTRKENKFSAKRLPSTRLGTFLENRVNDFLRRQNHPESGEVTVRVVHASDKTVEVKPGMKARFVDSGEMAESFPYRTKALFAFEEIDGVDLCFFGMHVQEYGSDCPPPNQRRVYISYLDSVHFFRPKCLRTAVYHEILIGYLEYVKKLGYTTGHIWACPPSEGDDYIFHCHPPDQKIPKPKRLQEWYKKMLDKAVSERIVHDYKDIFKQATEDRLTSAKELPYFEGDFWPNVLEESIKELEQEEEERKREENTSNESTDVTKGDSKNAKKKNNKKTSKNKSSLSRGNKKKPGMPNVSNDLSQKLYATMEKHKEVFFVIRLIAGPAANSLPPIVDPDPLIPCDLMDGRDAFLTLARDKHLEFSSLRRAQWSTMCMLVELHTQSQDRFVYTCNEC

Assays:
[1] = molecular target: T1, Tat ARM peptide (amino acids 45-58) …
[2] = molecular target: T2, Tat ARM peptide (amino acids 45-58) K50A
[3] = molecular target: T3, Tat ARM peptide (amino acids 45-58) K51A
[4] = molecular target: T4, Tat ARM peptide carrying an acetyl …
[5] = molecular target: full-length synthetic Tat protein (72 amino acids), unmodified
[6] = molecular target: histones purified from calf thymus
[7] = molecular target: T5, unmodified Tat ARM peptide (amino acids …)
[8] = molecular target: T6, Tat ARM peptide (amino acids 45-58) …

| Protein | in vitro methylation with radiolabeled SAM [1] | in vitro methylation with radiolabeled SAM; MALDI-TOF [2] | in vitro methylation with radiolabeled SAM; MALDI-TOF [3] | in vitro methylation with radiolabeled SAM; MALDI-TOF [4] | in vitro methylation with radiolabeled SAM, autoradiography [5] | in vitro methylation with radiolabeled SAM, autoradiography [6] | in vitro methylation with radiolabeled SAM, autoradiography (recombinant GST-IκBα) | MALDI-TOF mass shift after methylation reaction [7] | radioactive in vitro methylation of short Tat peptides [7] | in vitro acetylation with 14C-AcCoA, autoradiography [8] | in vitro acetylation with 14C-AcCoA, autoradiography [7] |
| --- | --- | --- | --- | --- | --- | --- | --- | --- | --- | --- | --- |
| B1 | Methylation by Set9 was abrogated when K51 or both lysines were mutated | mutation of K50 alone had no effect | Methylation by Set9 was abrogated when K51 or both lysines were mutated | No methylation signal was observed | The Tat protein was methylated in response to increasing amounts of Set9 enzyme | Set9 also methylated purified histones, predominantly histone H3, a known substrate of Set9 | methylation by Set9 was not observed with another recombinant protein, GST-IκBα | a shift of 14 Da was detected in the methylated ARM peptide, corresponding to the addition of a single methyl group | Methylation was observed with one peptide (45-58 amino acids) corresponding to the arginine-rich motif (ARM) of Tat |  |  |
| B2 |  |  |  |  |  |  |  |  |  | Acetylation by p300 occurred regardless of the methylation status of K51 | Acetylation by p300 occurred regardless of the methylation status of K51 |
